This is an account of results in the domain aggregation screens of Martell et al. (2025).

The data set is described as follows: soluble fraction after stress (log2 fold change); higher = more stays soluble; pooled small domains, quantitative proteomics. Particulars: stress: pH 4. In a few lines: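 Values are log2 fold changes, and higher ones mean more of the domain stayed soluble. Each fold change reflects the soluble amount of a domain after acid stress and is taken as a measure of aggregation propensity. The stress was pH 4, applied to pooled custom libraries of small protein domains analysed by high-throughput quantitative proteomics.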
Regarding “HMSREEFLAGLEEALAGEVPASVIRENLNYYNSYISQEMAKGRTVDEIVDEIGEPRIVARTIIDSSEAAGE”, the “soluble fraction (log2)” value was -0.246.
Take “HMSRELVILGNSMLNNALKAFHVSPASIKKKHWDKLILDYHLESKNNILIDIALGKRINVMVAHQLTSIID”: the “soluble fraction (log2)” value was not below 0.43.
For “HMSREVTVPPLSGLTLRDAARTLAERGLLMEAEGQGAVHRQDPPAGTRVPTGTPVRVFLTLPEQNS” the value was -0.511; for “HMSRGTLFVDVRGAVAKPGVYELPEKSRVFQAVEAAGGLLPEALERLVNQAAELTDGQQVYIPFEGEE”, 0.429; for “HMSRLLRTDAHLQYAAERGLPVTASAYTPVFAGAKQYTGRIESFDAQTIRFADGPAVERKAVARLEAE”, 0.138.
The same measure for “HMSRLLTTRQREVFEVATREGFWDVPRRINLSELAKVLGVAKSTLSSQLQRIESAVFHAFTDEIRRQS”: 0.313.
For “HMSRMLTVKQREVFDLAMREGYWETPRRITLTMLASLLSVSKSTLSVQLHKIEGTVLSSFSDEVRRRS” the value was -0.011; for “HMSRQDYLQTIYRLSVGKGYTTNKKIADFLSVSKPSVTEMIGKLQGEGLVAMDGAHIFLTEDGAEQ”, 0.108.
For the sequence “HMSRVTVDVNPDVLQWAIDKKGKGDIKNKFPKIDEWLNGISKPTIHQLENFAKYVSVPFGYLLLSKPPVE”, the “soluble fraction (log2)” value was found to be 0.00473.
For “HMSRYQDIANDIEKDIIEKKYTRKLPEQFELAQKYQTSRVTIVHALKILQNKKLIRTVKGHGTFITS”, the “soluble fraction (log2)” value was not below 0.43.
The same measure for “HMSSDEDELESIIKRVFADNPIELERLQNGEDKLIKFFMGLVMRQTKGKYPPKIIIDLLNKS”: -1.54.
For “HMSSDLDQYMKNIRKQHNLSKREFAKQLGISAATIVRIENGITVSPSKNLISKLAYYLQKSEVEILQDIQS” the value was -0.393; for “HMSSEMATLRSIVDNKQAEKVHGMMVDMFTASAMVQVYDKVNDENQAKMREMLKTQKGFQRMADFALSKI”, -0.535; for “HMSSEPASLVGKTGVAASVLRPSGRVEVNGEYYDAVSINGFIEKGESVFVHKYENAQLYVSKNSE”, -0.183.
For “HMSSESIKTDKNVGVGSTLEELEKAYGSDYTLSGKMYRYYQDDNSKYMYFFILNDVVQYYGYGIDV” the value was -1.38; for “HMSSIDLTARSGRAALKHRLSLLGYEFSKIELETLYVRFIELADEKKLLHDEDLIELVKEKN”, -0.655; for “HMSSIRDVVPEGLLSDREKLVLVLAFDRDLDGPDMARTLGISANTVRVLKARALKKLRQAGIQP”, -0.34.
For “HMSSIVLTARSGRAALAYRVKSIGVDLSKDQLDLVYKTFLGFADKKKEIIDTDIPQILKASGI”, the “soluble fraction (log2)” value is -0.265.
On to “HMSSIYVYPNPTANRIYIQADNIKKAELFDLMGRKVRSTNQPQIDISRLSRGNYILQVKTQNNTQSFKIIK”, for which the “soluble fraction (log2)” value is 0.0347.
As for “HMSSKAVLEKFEALFIDQMLQSMRKATVRSELFDSEGIKLYESLFDKEISEELAKSGGLGLTKDLEQQL”, the “soluble fraction (log2)” value was -1.35.
For the sequence “HMSSKFKIVGEILSIKKSDILYIIEILSNNEVVKATAVEDEIKDLKIGDKILLSSKAFNPIVNK”, the “soluble fraction (log2)” value is -1.09.
With “HMSSLTDNFVKALSYYLALSGKSKKEVADGIGIPPTTFSSWSNGKHLPDMDRLQNLATYLGAPVSEFFDFT”, the “soluble fraction (log2)” value was 0.051.
The same measure for “HMSSPVGIAQATTYVYVRAGHSMQAAKVGVLSPGEKVGVTGRSAQGFSEVVYNGVHRWVGSRYLSPT”: not below 0.43; for “HMSSQWWYSAGGERKGPVDFATLRGLYVQGAIDGRTLAWREDMQGWEAVNDIPDLEPLRRAVPPEL”: 0.11.
Consider “HMSSRSLSYSDFIERVDAGQVSKVVMDGERLVVVGQDGTSYVTIKPPGDQVTENLSRELISKGVEVEAEPQ”, for which the “soluble fraction (log2)” value is not below 0.43.
The same measure for “HMSSRSLTYSDFIERVDAGQVDAVTLDGERIVIRAKDGNTYVAIKPQGEDVTGSLTRDLIAKGVDVEAEPQ”: 0.0187; for “HMSSSDYDVYNKAINLMLNLLKEPKSIEEVTASLNITKSQAITWINRALNEGKIIKTNRPVRYVVNN”: 0.0142; for “HMSSSYMVRITTSVLNVRKGPGTNYGITTKVKKGEVYTIVAEEKNGNTTWGKLKSGTGYISLGYTER”: -0.145.
On to “HMSSSYVYGGNGEIVILSDVSKHLNVYNLNGQKVTDVNLTAGELQRISIATGIYVVGGKKIVV”, for which the “soluble fraction (log2)” value was -0.121.
Consider “HMSSVGELEVGNIFEGTVNSVRGGKVLLALGNGQMVLAQMDGRVNITPGSSMFFQVKSNDGETVAIRPYTG”, for which the “soluble fraction (log2)” value was found to be 0.156.
As to “HMSSWAEGLTERERHTLMWITKGLSNKLIARELGISDSTVKVYVKNLLRKLNVNSRLELAAWVHTHPL”, the “soluble fraction (log2)” value is -0.246.
The same measure for “HMSSYTQEDVRSGILYMAQLKPRNIEEFVSTLAFSKDDIMDNLSFLVDEGFLKFDADTDTYFNPVPL”: -0.604.
For “HMSTADGGYPSIVINDGRVIDTNLQKLGLDRSWLSAELKRQGKGSEKDIFLMTVNQRREVYISVKEA”, the “soluble fraction (log2)” value is -0.589.
For the sequence “HMSTEAFLGTEGEVVLPLLPDGLGKIRLHVADQDVELPARTGGEPIQIRERVVVVRFRDGIAEVEPAP”, the “soluble fraction (log2)” value is -0.525.
For “HMSTEDYLKTIYILESQQGVHGSDVARMLKVTRPTVSIALKALEQEGYVWMDESRLVHLTDSGLQIAKDT”, the “soluble fraction (log2)” value amounted to 0.149.
Consider “HMSTESAHLGERMLNQALRAMHIEPDQITEAHWQKLIRDYGLKKKSEILTDIGLGKRQNVMVAHQLLAMG”, for which the “soluble fraction (log2)” value was -0.143.
In the case of “HMSTFKSYRGKITASSGVNIRTGAGTNYNKNGALTYNSVVTIVDEKKVSGTTWGKLADGRGWISLDYLKK”, the “soluble fraction (log2)” value was determined as 0.105.
Turning to “HMSTGGDLTQRERELLGLMARGLSNQEISKRLTIAMPTVKFHVTNILAKLHADNRTEAVLVALKNKLVAL”, the “soluble fraction (log2)” value was -0.175.
“HMSTINGIEKYLSSGLIPYIGPKTAKRIVEKFGLDTLEIIQYNPERLKEIEGIGDKKLKKIVEAFEEQG”: the “soluble fraction (log2)” value is -0.333.
“HMSTISPNAFNFLQQNLNKFSDDAEGKMIKDILSKTTYDEYVKNEKSKTDFNSLLRRQTTTGDDNLNRYIN”: the “soluble fraction (log2)” value was 0.072.
Consider “HMSTKEFTIHAGEWSYRVSQKLENLGLVSDAKKFDQYLEDNGYSSKIKIGHYTISKDADFEEIAKEIT”, for which the “soluble fraction (log2)” value was 0.0658.
“HMSTKRGEILEFLKDFSARKGYAPSVREIMQAVGLKSTASVHYHLSELHKAGLITVDGTKNRAISLA”: the “soluble fraction (log2)” value was found to be 0.0891.
“HMSTMKSKWFVSSNPIAGVMKYQAQRKKDVNAVDSSENREASGQWYTDKEEAQAIVDKLNAEEQIKEAGK”: the “soluble fraction (log2)” value was 0.0846.
For “HMSTMLPFVMRELVELVMKKKALPLGDALYYIYSSKLYKSLLDKSTKLWYSSTLSLYETLEKEKTEEKRRY”, the “soluble fraction (log2)” value is -0.802.
The same measure for “HMSTMTDAQRHLFANKLSQLPEMGKYSHGTESYQQFAVRIAEMLQTPKKFKELYPYLQKVGFKA”: 0.0225; for “HMSTNYVQVLRAALNGVSGRKLAQQYRVSRDTVAILLRQAKIQGWQRAEDLENITEEDLVALLSG”: -0.987.
“HMSTPLPTGLPRGTIIEYTVQTDETLAIIAAKFNSTVDDIMTRNKITDPNTIYAGQILKVAINLVTP”: the “soluble fraction (log2)” value is -0.267.
Turning to “HMSTPVPIEGQPTENLNLRDQPSTSGKILTTIPKGKTVTILSEKNANGWYKVSYNGKTGYVSGSYFKVTK”, the “soluble fraction (log2)” value is -0.14.
Consider “HMSTSERLKQVMEVKGFNLKTFSEQADIPYRTLQNYILTNREPSAESLAKLHSQLGINLNWLMSGKGEMF”, for which the “soluble fraction (log2)” value was found to be 0.109.
As to “HMSTSIADNSSITYKVRKGDSLASIAKRHGVNINDVMRWNSVITKASQIQPGDMLTLYVRDS”, the “soluble fraction (log2)” value is not below 0.43.
Turning to “HMSTTALLEKMVRYIRTLPVISQVVLSLHYYRGMELREIASELDITESRASQLHTTAVLGIRDLLSSY”, the “soluble fraction (log2)” value is -2.02.
On to “HMSTTGIVKWFNEEKGFGFITQDQGGADVFVHYRAIASEGFKTLAEGQKVSFEVEQGQKGLQAANVQA”, for which the “soluble fraction (log2)” value was -0.948.
As for “HMSTTHLTASVIKDKVNVRSEADSQNGAIIDKARTGERLLVTDYGNKWTGIVLPDGKRGYIMTEYLQF”, the “soluble fraction (log2)” value was found to be 0.22.
Take “HMSTTSYTQFMEDAKAGKIARVDIKGREITVTPTEGSRYVITSPGDLWMVDDLRKDGVQVYGPP”: the “soluble fraction (log2)” value worked out at 0.137.
In the case of “HMSTTYLNEGDRITLTDSVNIRTSMSETADRVGLAYQGDVVTVIMSYAEGWTKVSWNGQTGYAKTEYL”, the “soluble fraction (log2)” value was -0.0679.
With “HMSTVIENVFKNFEVYEIKKGDTFYNIEKRFGVNRQELLVLNPELKEGLKLGMVLKIKEIIP”, the “soluble fraction (log2)” value is 0.192.
“HMSTYTETETAYLKAYSAAGVDGKISDSERGILNMTAEALGITVERTTELEAMFNLTVEEEA”: the “soluble fraction (log2)” value is -1.39.
Take “HMSVDIWTGAQTGNIEAVKQHLADGVDVNSKSDIGRTALDVAIAFKQPLITDLLRKHGGKTRDELKAAE”: the “soluble fraction (log2)” value is -0.397.
Take “HMSVEVADITRAYYEGVGFEWWIRSVRLDPNELIVDNDDEGKLYRVPFEINGEEVTFGDPVEVKIRYE”: the “soluble fraction (log2)” value was -0.71.
Take “HMSVFGDNVARLRAEHGMSQRALAERLEITNGTVAAWESRDTLPDYDRIRQIAEIFDVPIPQLFAKYIP”: the “soluble fraction (log2)” value is -1.2.
Regarding “HMSVISVETAKSKALAHAGLTASKVTFIENKLEWDDGRQVYDIEFYTSDYKEYDYTIDAVSGQVLEFDY”, the “soluble fraction (log2)” value came out at 0.114.
The same measure for “HMSVKLMEVKGASTVVSRQVREAVSIVFPTSSMRLDLVALKARIEGVDAVKRADVYLRNGILEIQIDER”: -0.981; for “HMSVKLYPNPTRSVTTFATDVDKWYLYDNQGKLVSEGNTKTIDVTAFPVGIYFVKTIKGNNSTFVKLIV”: -0.183; for “HMSVLNLQTDIPKKYTDVLGTSVKGRLNTLVHNVIINSVDRPVIQMSEEVHEAMQGLRIFMFENVYRNPV”: 0.22.
For “HMSVLSEQIKEQLMEDIFHKKYKAGDRIVESALARELGVSQASVREALRSLIAMGFLENEPFKGITVR”, the “soluble fraction (log2)” value came to 0.107.
On to “HMSVNAPMPGKIVNVLVSEGQKVNSGDVLLILEAMKMQNEIAATQAGTVKAINVAAGQSVKVGDALVN”, for which the “soluble fraction (log2)” value was -0.147.
Take “HMSVPQENKDLLGRSIEIFYAGKTVEAKVTDTGALAPLGRALDLSPATWRAFGASSISDWGVRGVFYRFVA”: the “soluble fraction (log2)” value is -0.0838.
Take “HMSVSTGTITGSVVNLREEPNTSSKVLDKLPKDTVVYVLSASGEWYNVSYGDKTGWVYGEYLA”: the “soluble fraction (log2)” value was -0.478.
